Target: the molecule itself
Assay: SEC; purified HydAB fraction on Superdex 200 10/300 GL calibrated with gel filtration standards

B1: αβ heterodimer of Syntrophus aciditrophicus HydAB (His-HydA with HydB) (complex)
chain 1: MEEHMSSINLTVNNIDVEVEAGATLYQAAQKAGVNIPTLCAWFDKDHTPGACRVCVVEVEGMPSLAASCAYPAQNGMKVFTNSDKVRQARKMIVELILASHPQECNFCVRNGNCELQKVAEMVGVKNIRYDSEEFDRDRELDTSSPAIVRDSSKCINCRRCVTVCESIQTVAALSPMNRGYESTVSPAFNLPLNETNCVNCGQCVMACPVGALYEKDQVDEVWKALQDPTRHVVVQEAPAIRAALGEEFGMPPGSLVTGKMIAALRRLGFDKVFDTNFTADLTIIEEGNELLKRVKEGGTLPMITSCSPGWIKFCEHFYPDLLGHLSTCKSPQQMFGALAKTYYAQVSGIDPANIFSVSIMPCTAKKYEAQRPEMKSSGYQDVDVVLTTRELARMIKEAGIDFVNLPDEKYDDPMGEYTGAATIFGATGGVMEAALRTVYAVVTGEELSDLNIMPVRGLEGVKAAAVPVGALGDVKVAVAHGLGNARKLLDEIRAGKSEYAFIEVMCCPGGCVAGGGEPIPTTDEIRMLRAGALYRDDGEVQQYRQSHQSPPVKAVYEKFLKEPLGHKSHELLHTHYVQRGQSLPHLDASPAGEKETVEAMCEKD
chain 2: MITVQDIENVIAARGNAREHLMAILRDLENLSGRNVLDVSVLNTLAMKMDLPQSAISGFTSFYTMFSTEPRAKFIIRVCKSGPCHVMGARTIFDVIENHLGIRAGETTADGLFHLEECECLGLCSAAPAMMVNYDMHGNLSESNIKEILDSYSAREPAFKAEYGPGIEGRAVIINNSQQTRRLLENVGKVDPASIESYLQNGGYEAARKAFAEYSPEQVIGIVKDSGLRGRGGAGFPVGVKWSFVPKGEMQKYVICNADEGEPGTFKDRVLMEENPQQLIEGMLLCGYAIGATLGYIYVRGEYRRSIERLQSAIDQARAKGFLGKKIFGSNFDFDIFVKEGGGAYVCGEETSLINSMEGKRGYPRVRPPFPAAAGFMGMPSNVNNVETLSSIPMIVARGADWFKSVGTATCAGTKLYCLSGKVNQTGLVELPMGATLRQMIDTFGGGMKSGSSFKFAQVGGAAGGILGADLMDLPLDIDSTIKAGVTLGSGVVLVCDQETCAVDFLLNVLNFFEHESCGQCIPCKLGTSQLHYVAQKFAMREAEEKDIQLMIDTAKMMKLASLCALGQSPILPIETMIRNFREEFVKHCDPDYECPQCDASLQAYYL
notes: HydA, [FeFe]-hydrogenase alpha subunit, Syntrophus aciditrophicus, locus tag SYN_01370; as the chain of m1; HydB, [FeFe]-hydrogenase beta subunit, Syntrophus aciditrophicus, locus tag SYN_01369; as the chain of m2; Unit of the α2β2 heterotetramer found by size exclusion chromatography; also called HydAB fraction; 144 kDa αβ heterodimer; source: E. coli BL21(DE3), co-expressed with maturation genes
stoichiometry N: 2

Source: paper PMC7311640, “The Beta Subunit of Non-bifurcating NADH-Dependent [FeFe]-Hydrogenases Differs From Those of Multimeric Electron-Bifurcating [FeFe]-Hydrogenases” (Frontiers in Microbiology, 2020)
